Test results published in US20200085917A1.

Experiments:
Experiment in all cases: GST pull-down, LC-MS/MS
[1] = target: 1700020C11Rik_IPI:IPI00315908.1 (mouse)
[2] = target: 2900010M23Rik_IPI:IPI00133350.1 (mouse)
[3] = target: Acadsb_IPI:IPI00119842.1 (mouse) (UniProt Q9DBL1)
[4] = target: Afg3l2_IPI:IPI00170357.5 (mouse) (UniProt Q8JZQ2)
[5] = target: Agk_IPI:IPI00113606.2 (mouse) (UniProt Q9ESW4)
[6] = target: Brp44_IPI:IPI00131896.1 (mouse) (UniProt Q9D023)
[7] = target: Coq5_IPI:IPI00379695.2 (mouse) (UniProt Q9CXI0)
[8] = target: Dci_IPI:IPI00114416.1 (mouse) (UniProt P42125)
[9] = target: Dnaja3_IPI:IPI00120414.1 (mouse) (UniProt Q99M87)
Sequence of Dnaja3_IPI:IPI00120414.1 (mouse) (Q99M87 whole entry): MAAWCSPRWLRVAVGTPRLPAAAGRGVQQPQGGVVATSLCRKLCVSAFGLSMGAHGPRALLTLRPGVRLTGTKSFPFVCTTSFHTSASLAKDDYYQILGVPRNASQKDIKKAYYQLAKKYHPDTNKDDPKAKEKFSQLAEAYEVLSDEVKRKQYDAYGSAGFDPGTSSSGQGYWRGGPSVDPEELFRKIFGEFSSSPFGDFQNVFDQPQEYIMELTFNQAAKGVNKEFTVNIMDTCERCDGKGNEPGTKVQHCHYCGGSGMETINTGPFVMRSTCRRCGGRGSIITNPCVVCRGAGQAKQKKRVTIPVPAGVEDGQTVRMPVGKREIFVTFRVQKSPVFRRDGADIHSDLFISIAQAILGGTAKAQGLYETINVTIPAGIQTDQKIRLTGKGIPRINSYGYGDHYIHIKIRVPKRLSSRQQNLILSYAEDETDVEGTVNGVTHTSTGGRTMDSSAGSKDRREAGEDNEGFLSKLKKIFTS

[10] = target: Echs1_IPI:IPI00454049.4 (mouse) (UniProt Q8BH95)
Sequence of Echs1_IPI:IPI00454049.4 (mouse) (Q8BH95 28-290 limits assumed): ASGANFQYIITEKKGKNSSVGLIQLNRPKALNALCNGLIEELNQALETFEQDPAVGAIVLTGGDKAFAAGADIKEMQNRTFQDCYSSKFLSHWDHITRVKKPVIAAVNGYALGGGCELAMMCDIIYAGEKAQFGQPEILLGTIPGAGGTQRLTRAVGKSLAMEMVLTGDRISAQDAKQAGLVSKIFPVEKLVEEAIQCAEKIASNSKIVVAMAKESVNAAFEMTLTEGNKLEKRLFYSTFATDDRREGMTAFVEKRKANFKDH

[11] = target: Gm6180_IPI:IPI00409405.2 (mouse)
[12] = target: Gnao1_IPI:IPI00115546.4 (mouse) (UniProt P18872)
Sequence of Gnao1_IPI:IPI00115546.4 (mouse) (P18872 2-354 limits assumed): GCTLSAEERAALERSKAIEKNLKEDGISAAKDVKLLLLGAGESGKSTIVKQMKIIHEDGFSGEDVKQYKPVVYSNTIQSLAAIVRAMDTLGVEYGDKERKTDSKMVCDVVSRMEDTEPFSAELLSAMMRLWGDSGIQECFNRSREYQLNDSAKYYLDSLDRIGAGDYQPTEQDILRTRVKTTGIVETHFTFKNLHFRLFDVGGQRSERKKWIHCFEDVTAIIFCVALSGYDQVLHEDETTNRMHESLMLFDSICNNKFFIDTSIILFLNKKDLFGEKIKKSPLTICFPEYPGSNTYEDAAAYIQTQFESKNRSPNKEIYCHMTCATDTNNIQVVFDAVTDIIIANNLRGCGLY

[13] = target: Gnb3_IPI:IPI00116938.1 (mouse) (UniProt Q61011)
[14] = target: Gstk1_IPI:IPI00121051.3 (mouse) (UniProt Q9DCM2)
[15] = target: Hint2_IPI:IPI00133034.3 (mouse) (UniProt Q9D0S9)
[16] = target: Hmgcl_IPI:IPI00379694.4 (mouse) (UniProt P38060)
[17] = target: Hspa5_IPI:IPI00319992.1 (mouse) (UniProt P20029)
[18] = target: Idh3g_IPI:IPI00109169.1 (mouse) (UniProt P70404)
Sequence of Idh3g_IPI:IPI00109169.1 (mouse) (P70404 40-393 limits assumed): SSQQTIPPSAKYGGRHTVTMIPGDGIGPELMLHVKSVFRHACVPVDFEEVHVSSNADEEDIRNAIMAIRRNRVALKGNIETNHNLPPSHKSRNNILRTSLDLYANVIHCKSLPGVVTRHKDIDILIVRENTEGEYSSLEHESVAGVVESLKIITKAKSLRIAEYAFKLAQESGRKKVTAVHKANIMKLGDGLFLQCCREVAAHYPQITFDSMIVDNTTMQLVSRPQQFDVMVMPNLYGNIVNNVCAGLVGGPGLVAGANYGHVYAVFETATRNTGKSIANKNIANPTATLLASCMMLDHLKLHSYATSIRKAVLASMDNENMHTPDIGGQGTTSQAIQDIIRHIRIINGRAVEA

[19] = target: Letm1_IPI:IPI00131177.1 (mouse) (UniProt Q9Z2I0)
Sequence of Letm1_IPI:IPI00131177.1 (mouse) (Q9Z2I0 115-738 limits assumed): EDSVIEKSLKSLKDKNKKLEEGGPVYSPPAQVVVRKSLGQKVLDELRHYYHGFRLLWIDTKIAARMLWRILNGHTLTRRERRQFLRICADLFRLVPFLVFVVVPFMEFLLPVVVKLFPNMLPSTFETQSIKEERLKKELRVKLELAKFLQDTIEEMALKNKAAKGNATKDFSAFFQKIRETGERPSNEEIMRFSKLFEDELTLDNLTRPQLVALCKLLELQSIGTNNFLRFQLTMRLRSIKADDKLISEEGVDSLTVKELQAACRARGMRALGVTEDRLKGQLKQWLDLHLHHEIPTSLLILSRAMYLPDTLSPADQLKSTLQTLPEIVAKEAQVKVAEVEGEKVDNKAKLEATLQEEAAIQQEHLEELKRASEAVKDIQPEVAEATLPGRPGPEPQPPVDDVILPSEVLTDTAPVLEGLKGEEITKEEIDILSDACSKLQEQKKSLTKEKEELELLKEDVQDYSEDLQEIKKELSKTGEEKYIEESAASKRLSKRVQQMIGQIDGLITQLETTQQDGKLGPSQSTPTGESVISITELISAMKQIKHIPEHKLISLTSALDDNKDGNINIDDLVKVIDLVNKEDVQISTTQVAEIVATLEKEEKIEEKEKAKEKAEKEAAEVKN

[20] = target: Lyrm7_IPI:IPI00117832.1 (mouse) (UniProt Q9DA03)
Sequence of Lyrm7_IPI:IPI00117832.1 (mouse) (Q9DA03 whole entry): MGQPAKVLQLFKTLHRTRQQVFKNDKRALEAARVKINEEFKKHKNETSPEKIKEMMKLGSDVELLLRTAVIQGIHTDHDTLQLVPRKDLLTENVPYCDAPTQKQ

[21] = target: Mrpl14_IPI:IPI00133778.1 (mouse) (UniProt Q9D1I6)
Sequence of Mrpl14_IPI:IPI00133778.1 (mouse) (Q9D1I6 31-145 limits assumed): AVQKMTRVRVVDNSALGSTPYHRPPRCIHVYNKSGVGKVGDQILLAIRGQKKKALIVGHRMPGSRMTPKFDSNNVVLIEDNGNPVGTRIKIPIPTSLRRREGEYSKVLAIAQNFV

[22] = target: Mthfd1l_IPI:IPI00228113.5 (mouse) (UniProt Q3V3R1)
[23] = target: Nup210l_IPI:IPI00356451.5 (mouse) (UniProt Q9D2F7)
[24] = target: Ociad2_IPI:IPI00112139.1 (mouse) (UniProt Q9D8W7)
Sequence of Ociad2_IPI:IPI00112139.1 (mouse) (Q9D8W7 whole entry): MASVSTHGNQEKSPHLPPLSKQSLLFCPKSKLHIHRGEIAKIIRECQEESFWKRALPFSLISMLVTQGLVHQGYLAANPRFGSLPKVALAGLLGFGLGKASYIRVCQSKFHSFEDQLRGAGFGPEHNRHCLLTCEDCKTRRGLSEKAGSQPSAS

[25] = target: Ppdpf_IPI:IPI00133078.1 (mouse) (UniProt Q9CR37)
Sequence of Ppdpf_IPI:IPI00133078.1 (mouse) (Q9CR37 whole entry): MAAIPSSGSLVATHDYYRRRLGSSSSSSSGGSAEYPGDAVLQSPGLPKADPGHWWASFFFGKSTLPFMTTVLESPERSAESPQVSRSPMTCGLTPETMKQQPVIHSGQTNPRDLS

[26] = target: Prdx3_IPI:IPI00116192.1 (mouse) (UniProt P20108)
[27] = target: Pycr2_IPI:IPI00123278.1 (mouse) (UniProt Q922Q4)
Sequence of Pycr2_IPI:IPI00123278.1 (mouse) (Q922Q4 2-320 limits assumed): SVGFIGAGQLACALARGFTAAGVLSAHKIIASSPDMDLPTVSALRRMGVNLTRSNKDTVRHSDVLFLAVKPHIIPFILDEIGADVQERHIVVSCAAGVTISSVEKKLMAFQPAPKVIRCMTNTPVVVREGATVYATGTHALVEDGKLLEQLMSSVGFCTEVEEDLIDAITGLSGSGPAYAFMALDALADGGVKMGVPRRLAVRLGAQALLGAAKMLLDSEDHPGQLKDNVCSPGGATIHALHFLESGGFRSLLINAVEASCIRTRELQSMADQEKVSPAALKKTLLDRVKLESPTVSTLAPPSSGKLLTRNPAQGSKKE

[28] = target: Rab15_IPI:IPI00170032.1 (mouse) (UniProt Q8K386)
Sequence of Rab15_IPI:IPI00170032.1 (mouse) (Q8K386 whole entry): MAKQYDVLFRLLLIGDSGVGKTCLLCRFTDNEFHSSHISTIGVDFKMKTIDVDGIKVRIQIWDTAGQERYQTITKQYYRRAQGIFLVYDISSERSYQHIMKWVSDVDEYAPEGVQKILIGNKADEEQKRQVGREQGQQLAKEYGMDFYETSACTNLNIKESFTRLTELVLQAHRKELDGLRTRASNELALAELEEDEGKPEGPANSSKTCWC

[29] = target: Rdh13_IPI:IPI00229040.1 (mouse) (UniProt Q8CEE7)
Sequence of Rdh13_IPI:IPI00229040.1 (mouse) (Q8CEE7 2-334 limits assumed): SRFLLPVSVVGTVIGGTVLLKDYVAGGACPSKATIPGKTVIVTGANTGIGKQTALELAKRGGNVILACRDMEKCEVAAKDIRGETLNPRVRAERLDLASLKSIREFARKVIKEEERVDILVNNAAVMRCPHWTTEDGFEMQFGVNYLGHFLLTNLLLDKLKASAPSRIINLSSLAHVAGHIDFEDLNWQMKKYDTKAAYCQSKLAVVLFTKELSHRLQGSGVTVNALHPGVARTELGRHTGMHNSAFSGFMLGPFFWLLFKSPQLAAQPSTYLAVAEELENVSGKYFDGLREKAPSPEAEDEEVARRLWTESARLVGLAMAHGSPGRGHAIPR

[30] = target: Rhot1_IPI:IPI00123186.4 (mouse) (UniProt Q8BG51)
[31] = target: Slc6a11_IPI:IPI00136867.1 (mouse) (UniProt P31650)
[32] = target: Uqcrb_IPI:IPI00132347.1 (mouse) (UniProt Q9D855)
Sequence of Uqcrb_IPI:IPI00132347.1 (mouse) (Q9D855 2-111 limits assumed): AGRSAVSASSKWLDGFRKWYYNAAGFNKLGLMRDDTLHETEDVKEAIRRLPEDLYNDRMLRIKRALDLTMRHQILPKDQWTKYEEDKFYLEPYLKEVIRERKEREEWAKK

[33] = target: Ywhaz_IPI:IPI00116498.1 (mouse) (UniProt P63101)

Sequence of Agk_IPI:IPI00113606.2 (mouse) (Q9ESW4 whole entry): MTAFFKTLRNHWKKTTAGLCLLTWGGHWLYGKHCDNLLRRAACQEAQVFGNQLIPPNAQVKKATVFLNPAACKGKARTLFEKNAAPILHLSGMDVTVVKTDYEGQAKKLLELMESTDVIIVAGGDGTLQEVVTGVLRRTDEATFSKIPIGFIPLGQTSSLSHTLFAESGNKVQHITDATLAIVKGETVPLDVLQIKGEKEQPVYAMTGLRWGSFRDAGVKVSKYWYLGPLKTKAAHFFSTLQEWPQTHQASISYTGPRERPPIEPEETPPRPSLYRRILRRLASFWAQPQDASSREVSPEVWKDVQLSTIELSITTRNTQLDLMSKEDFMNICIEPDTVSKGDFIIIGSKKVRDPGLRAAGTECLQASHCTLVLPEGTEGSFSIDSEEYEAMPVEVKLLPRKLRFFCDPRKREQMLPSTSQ
Sequence of Afg3l2_IPI:IPI00170357.5 (mouse) (Q8JZQ2 67-802 limits assumed): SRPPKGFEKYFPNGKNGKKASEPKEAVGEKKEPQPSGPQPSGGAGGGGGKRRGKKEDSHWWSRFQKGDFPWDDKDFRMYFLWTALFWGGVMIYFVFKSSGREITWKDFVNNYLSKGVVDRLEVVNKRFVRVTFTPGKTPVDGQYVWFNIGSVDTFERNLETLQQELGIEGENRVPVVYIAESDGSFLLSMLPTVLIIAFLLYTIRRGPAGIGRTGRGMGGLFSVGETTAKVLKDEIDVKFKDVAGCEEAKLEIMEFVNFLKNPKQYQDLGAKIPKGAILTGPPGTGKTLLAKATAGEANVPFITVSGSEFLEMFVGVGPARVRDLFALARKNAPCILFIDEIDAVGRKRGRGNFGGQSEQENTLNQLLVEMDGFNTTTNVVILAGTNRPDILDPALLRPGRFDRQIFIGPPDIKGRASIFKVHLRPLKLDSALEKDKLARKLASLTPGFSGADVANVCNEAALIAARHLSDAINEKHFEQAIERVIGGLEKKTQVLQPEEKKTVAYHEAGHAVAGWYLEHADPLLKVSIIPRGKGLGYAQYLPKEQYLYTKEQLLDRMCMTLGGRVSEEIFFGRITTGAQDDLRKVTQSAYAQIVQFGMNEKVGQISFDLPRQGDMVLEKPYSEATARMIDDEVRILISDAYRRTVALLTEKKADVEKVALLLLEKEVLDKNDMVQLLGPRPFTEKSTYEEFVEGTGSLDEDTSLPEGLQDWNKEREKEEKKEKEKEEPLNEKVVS
Sequence of Brp44_IPI:IPI00131896.1 (mouse) (Q9D023 whole entry): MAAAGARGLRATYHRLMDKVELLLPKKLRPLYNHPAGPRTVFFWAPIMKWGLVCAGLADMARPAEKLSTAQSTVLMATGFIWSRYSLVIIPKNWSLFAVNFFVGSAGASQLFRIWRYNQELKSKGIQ

No. of total peptides [1]: 1 peptides
No. of unique peptides [1]: 1 peptides
No. of total peptides [2]: 1 peptides
No. of unique peptides [2]: 1 peptides
No. of total peptides [3]: 2 peptides
No. of unique peptides [3]: 2 peptides
No. of total peptides [4]: 5 peptides
No. of unique peptides [4]: 4 peptides
No. of total peptides [5]: 1 peptides
No. of unique peptides [5]: 1 peptides
No. of total peptides [6]: 5 peptides
No. of unique peptides [6]: 5 peptides
No. of total peptides [7]: 2 peptides
No. of unique peptides [7]: 2 peptides
No. of total peptides [8]: 7 peptides
No. of unique peptides [8]: 6 peptides
No. of total peptides [9]: 1 peptides
No. of unique peptides [9]: 1 peptides
No. of total peptides [10]: 5 peptides
No. of unique peptides [10]: 5 peptides
No. of total peptides [11]: 1 peptides
No. of unique peptides [11]: 1 peptides
No. of total peptides [12]: 3 peptides
No. of unique peptides [12]: 3 peptides
No. of total peptides [13]: 1 peptides
No. of unique peptides [13]: 1 peptides
No. of total peptides [14]: 1 peptides
No. of unique peptides [14]: 1 peptides
No. of total peptides [15]: 1 peptides
No. of unique peptides [15]: 1 peptides
No. of total peptides [16]: 1 peptides
No. of unique peptides [16]: 1 peptides
No. of total peptides [17]: 1 peptides
No. of unique peptides [17]: 1 peptides
No. of total peptides [18]: 2 peptides
No. of unique peptides [18]: 2 peptides
No. of total peptides [19]: 4 peptides
No. of unique peptides [19]: 4 peptides
No. of total peptides [20]: 1 peptides
No. of unique peptides [20]: 1 peptides
No. of total peptides [21]: 4 peptides
No. of unique peptides [21]: 3 peptides
No. of total peptides [22]: 2 peptides
No. of unique peptides [22]: 2 peptides
No. of total peptides [23]: 1 peptides
No. of unique peptides [23]: 1 peptides
No. of total peptides [24]: 3 peptides
No. of unique peptides [24]: 3 peptides
No. of total peptides [25]: 4 peptides
No. of unique peptides [25]: 4 peptides
No. of total peptides [26]: 3 peptides
No. of unique peptides [26]: 3 peptides
No. of total peptides [27]: 1 peptides
No. of unique peptides [27]: 1 peptides
No. of total peptides [28]: 1 peptides
No. of unique peptides [28]: 1 peptides
No. of total peptides [29]: 1 peptides
No. of unique peptides [29]: 1 peptides
No. of total peptides [30]: 1 peptides
No. of unique peptides [30]: 1 peptides
No. of total peptides [31]: 1 peptides
No. of unique peptides [31]: 1 peptides
No. of total peptides [32]: 1 peptides
No. of unique peptides [32]: 1 peptides
No. of total peptides [33]: 1 peptides
No. of unique peptides [33]: 1 peptides
Substance: GST-Httex1-97Q (from UniProt P08515 1-218; P42858 1-88)
